Consider 15 sequences from the Immune Epitope Database (IEDB).

Assay [1] addresses HLA-B*15:02. In words: IEDB peptide-MHC binding, purified MHC/competitive/fluorescence; filed as Kd, often an IC50 or EC50 that approximates it; ≥ and ≤ were set here for values at or beyond the usual limits of such assays.
The target of assay [2] is HLA-B*73:01. Described as above.
Assay [3] deals with HLA-C*06:02. In words: IEDB peptide-MHC binding, purified MHC/direct/fluorescence; filed as Kd, often an IC50 or EC50 that approximates it; ≥ and ≤ were set here for values at or beyond the usual limits of such assays.
The target of assay [4] is HLA-C*07:02. The description is as above.
The target in assay [5] is HLA-C*04:01. The description is as above. Conditions: source organism: Homo sapiens.
In assay [6] the target is HLA-A*24:03. In words: IEDB peptide-MHC binding, purified MHC/competitive/fluorescence; filed as Kd, often an IC50 or EC50 that approximates it; ≥ and ≤ were set here for values at or beyond the usual limits of such assays. Conditions: source organism: Salmonella enterica subsp. enterica serovar Paratyphi A str. AKU_12601.
Assay [7] deals with HLA-A*02:19. The description is as above. Particulars: source organism: Salmonella enterica subsp. enterica serovar Paratyphi A str. AKU_12601.
The target in assay [8] is HLA-B*27:03. Described as above. Particulars: source organism: Salmonella enterica subsp. enterica serovar Paratyphi A str. AKU_12601.
The target in assay [9] is HLA-A*26:01. The description is as above. Particulars: source organism: Salmonella enterica subsp. enterica serovar Paratyphi A str. AKU_12601.
The target of assay [10] is HLA-B*15:17. The description is as above. Particulars: source organism: Salmonella enterica subsp. enterica serovar Paratyphi A str. AKU_12601.
Assay [11] has as its target HLA-A*03:01. Described as above. Conditions: source organism: Salmonella enterica subsp. enterica serovar Paratyphi A str. AKU_12601.
Assay [12] has as its target HLA-A*02:01. The description is as above. Particulars: source organism: Salmonella enterica subsp. enterica serovar Paratyphi A str. AKU_12601.
Assay [13] has as its target HLA-B*18:01. Described as above. Particulars: source organism: Salmonella enterica subsp. enterica serovar Paratyphi A str. AKU_12601.
Assay [14] addresses HLA-B*39:01. The description is as above. Conditions: source organism: Salmonella enterica subsp. enterica serovar Paratyphi A str. AKU_12601.
Assay [15] concerns the target HLA-B*51:01. The description is as above. Conditions: source organism: Salmonella enterica subsp. enterica serovar Paratyphi A str. AKU_12601.
The target in assay [16] is HLA-B*57:01. The description is as above. Particulars: source organism: Salmonella enterica subsp. enterica serovar Paratyphi A str. AKU_12601.
In assay [17] the target is HLA-B*46:01. The assay is described as above. Conditions: source organism: Salmonella enterica subsp. enterica serovar Paratyphi A str. AKU_12601.
Assay [18] concerns the target HLA-A*02:12. Described as above. Particulars: source organism: Salmonella enterica subsp. enterica serovar Paratyphi A str. AKU_12601.
For assay [19], the target named is HLA-B*15:01. The description is as above. Conditions: source organism: Salmonella enterica subsp. enterica serovar Paratyphi A str. AKU_12601.
For assay [20], the target named is HLA-A*02:03. Described as above. Conditions: source organism: Salmonella enterica subsp. enterica serovar Paratyphi A str. AKU_12601.
The target of assay [21] is HLA-A*29:02. The description is as above. Conditions: source organism: Salmonella enterica subsp. enterica serovar Paratyphi A str. AKU_12601.
Assay [22] deals with HLA-A*02:11. Described as above. Conditions: source organism: Salmonella enterica subsp. enterica serovar Paratyphi A str. AKU_12601.
In assay [23] the target is HLA-B*08:01. The assay is described as follows: IEDB peptide-MHC binding, purified MHC/direct/fluorescence; filed as Kd, often an IC50 or EC50 that approximates it; ≥ and ≤ were set here for values at or beyond the usual limits of such assays. Particulars: source organism: Vibrio cholerae.
The target in assay [24] is HLA-A*26:01. The assay is described as above. Conditions: source organism: Vibrio cholerae.
For assay [25], the target named is HLA-A*01:01. The description is as above. Particulars: source organism: Vibrio cholerae.
For assay [26], the target named is HLA-A*69:01. The assay is described as above. Conditions: source organism: Vibrio cholerae.
Assay [27] deals with HLA-A*03:01. The description is as above. Conditions: source organism: Vibrio cholerae.
Assay [28] has as its target HLA-A*02:01. The description is as above. Particulars: source organism: Vibrio cholerae.
The target of assay [29] is HLA-B*58:01. The description is as above. Conditions: source organism: Vibrio cholerae.
Assay [30] has as its target HLA-A*31:01. The assay is described as above. Conditions: source organism: Vibrio cholerae.
Assay [31] concerns the target HLA-B*44:02. The description is as above. Conditions: source organism: Vibrio cholerae.
Assay [32] concerns the target HLA-B*15:01. Described as above. Particulars: source organism: Vibrio cholerae.
Assay [33] has as its target HLA-B*07:02. Described as above. Particulars: source organism: Vibrio cholerae.
For assay [34], the target named is HLA-B*27:05. The description is as above. Conditions: source organism: Vibrio cholerae.
In assay [35] the target is HLA-A*30:01. The description is as above. Conditions: source organism: Vibrio cholerae.
For assay [36], the target named is HLA-A*11:01. The assay is described as above. Particulars: source organism: Vibrio cholerae.
The target in assay [37] is HLA-B*40:01. The description is as above. Particulars: source organism: Vibrio cholerae.
Assay [38] deals with HLA-B*48:01. In words: IEDB peptide-MHC binding, purified MHC/competitive/fluorescence; filed as Kd, often an IC50 or EC50 that approximates it; ≥ and ≤ were set here for values at or beyond the usual limits of such assays. Particulars: source organism: Encephalitozoon cuniculi GB-M1.
For assay [39], the target named is HLA-B*27:05. Described as above. Particulars: source organism: Encephalitozoon cuniculi GB-M1.
The mark [40] stands for this setting: source organism: Vibrio vulnificus CMCP6.
The mark [41] stands for this setting: source organism: Encephalitozoon cuniculi GB-M1.

Bounds are passed on as bounds.

One may read the Kd as the concentration at which binding is half-saturated. A high value points to lower affinity. Sequence QLLDFLLAY displayed a Kd in [1] (source organism: Shigella dysenteriae Sd197) of 0.0558 µM.

With SDFFDRLQV, in [2] (source organism: Cryptosporidium parvum Iowa II), the Kd is not below 20 µM.

The sequence GLYQGIVGF had a Kd in assay [1] (source organism: Rickettsia prowazekii str. Madrid E) of 0.0596 µM.

For FMIVNNFPV, the dissociation constant Kd in [3] (setting [40]) was determined as 0.633 µM; in assay [4] (setting [40]), 1.01 µM.

In assay [3] (source organism: dengue virus type 1), RKKLRPRWL yielded a Kd not below 20 µM.

For HMLVVIRKY, the Kd in assay [1] (source organism: Clostridium botulinum A str. ATCC 3502) stood at 0.194 µM.

WYDALCVLL yielded a Kd in [5] of 0.035 µM.

Turning to YYNAFHWAI, in [4] (source organism: Homo sapiens), the Kd worked out at 0.715 µM.

Take SRDYYRHKV: the Kd in [2] (source organism: Clostridium novyi NT) is 3.62 µM.

ILRDGQRWY gave a Kd in assay [1] (source organism: Yersinia pestis CO92) of 0.0552 µM.

As to AMDTHLYFE, the Kd in [6], in [7], in [8], in [9], in assay [10] and in assay [11] was not below 20 µM in each case. Moreover, the Kd in [12], in assay [13], in assay [14], in [15], in [16] and in assay [17] was not below 20 µM in each case. For the same sequence, the Kd in [18] was 0.284 µM; in [19], not below 20 µM; in assay [20] it was not below 20 µM; in assay [21], not below 20 µM; in assay [22], 0.0539 µM.

For YFYYNAFHW, the Kd was not below 20 µM in [5] and 2.06 µM in assay [4] (source organism: Homo sapiens).

Take GKFFAQAFL: the Kd in [23], in assay [24], in assay [25], in assay [26], in assay [27] and in [28] was not below 20 µM each time. Also, the Kd in assay [29] is not below 20 µM; in [30], not below 20 µM; in assay [31], not below 20 µM; in [32], not below 20 µM; in [33] it was not below 20 µM; in [34] it was 1.29 µM. Further, the Kd in assay [35] was 0.753 µM; in assay [36] it was not below 20 µM; in assay [37] it was not below 20 µM; in assay [2] (source organism: Vibrio cholerae), not below 20 µM.

As for FILSGRFSY, the Kd in assay [1] (source organism: Shigella flexneri) amounted to 0.396 µM.

As to YRFNLRRKM, the Kd is 0.01 µM in [3] (setting [41]), 0.0851 µM in [2] (setting [41]), not below 20 µM in assay [38] and 0.0012 µM in [39].
